In article PMC9537594:

How the values were obtained:
[1] = target: Cross-linked His-CAhex: disulfide-stabilized hexamer of 6-His-CA(A14C/E45C/W184A/M185A) (HIV-1); test: SPR; Reichert 4-SPR; cross-linked His-CAhex immobilised on an NTA chip via the C-terminal His-tag; peptides 3.9 μM to 2 mM; 0.01 M HEPES pH 7.4, 0.15 M NaCl, 0.05% v/v Surfactant P20; simple kinetic model
[2] = target: cross-linked His-CAhex, 6-His-CA(A14C/E45C/W184A/M185A) (HIV-1); test: SPR; Reichert 4-SPR; cross-linked His-CAhex immobilised on an NTA chip via the C-terminal His-tag; peptides 3.9 µM to 2 mM; 0.01 M HEPES pH 7.4, 0.15 M NaCl, 0.05% Surfactant P20; Scrubber 2.0, simple kinetic model

Row | Binder | Kd [1] [µM] | Kd [2] [µM]
1 | GPLLPGQSFGGPSVS [SEC24C_(228-242) 15-mer FG peptide] | 1070 | –
2 | NSPSGVFTFGANSST [NUP1531409-1423 peptide] | – | 131
3 | GPLLPGQSFGGPSVS [SEC24C228-242 peptide] | – | 1070
